Test results as given in publication PMC10786891, “Massively parallel profiling of RNA-targeting CRISPR-Cas13d”.

T1: EsCas13d, nuclease-dead (Eubacterium siraeum, UniProt B0MS50, R295A;H300A;R849A;H854A)
T1 sequence: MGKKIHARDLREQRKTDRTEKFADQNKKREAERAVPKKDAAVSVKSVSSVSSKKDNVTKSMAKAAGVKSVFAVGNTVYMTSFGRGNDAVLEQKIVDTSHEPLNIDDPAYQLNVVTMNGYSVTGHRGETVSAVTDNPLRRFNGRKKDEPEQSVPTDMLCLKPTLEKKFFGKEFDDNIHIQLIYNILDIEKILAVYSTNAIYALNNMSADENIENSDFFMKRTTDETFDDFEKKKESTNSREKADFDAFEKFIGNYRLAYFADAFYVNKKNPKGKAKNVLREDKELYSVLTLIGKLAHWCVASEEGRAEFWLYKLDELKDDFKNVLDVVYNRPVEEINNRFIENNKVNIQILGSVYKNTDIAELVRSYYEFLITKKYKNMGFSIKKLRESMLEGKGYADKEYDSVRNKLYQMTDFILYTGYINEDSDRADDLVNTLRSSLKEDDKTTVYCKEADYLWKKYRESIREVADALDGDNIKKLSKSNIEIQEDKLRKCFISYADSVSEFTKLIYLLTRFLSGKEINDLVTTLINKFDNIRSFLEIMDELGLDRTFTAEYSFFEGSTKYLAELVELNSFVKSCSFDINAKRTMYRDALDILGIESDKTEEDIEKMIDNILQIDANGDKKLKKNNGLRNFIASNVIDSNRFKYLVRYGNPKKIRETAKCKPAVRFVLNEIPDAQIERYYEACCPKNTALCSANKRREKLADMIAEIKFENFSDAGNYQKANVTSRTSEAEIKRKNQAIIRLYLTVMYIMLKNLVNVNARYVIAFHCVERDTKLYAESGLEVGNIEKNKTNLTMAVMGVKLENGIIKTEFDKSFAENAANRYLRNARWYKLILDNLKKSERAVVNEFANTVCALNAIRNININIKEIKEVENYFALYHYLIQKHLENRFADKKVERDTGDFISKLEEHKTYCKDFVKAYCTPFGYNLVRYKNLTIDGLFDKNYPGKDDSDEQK

B1: target 1 G5U,G17A (mixed)
RNA 1: CACCCGUGCAAAAAUGCAGGGGUCUAAAACUGAGCGGAUAACCUCUCUAUGG
RNA 2: GGGAAUGGAUCCACAUCUACGAAUUCGUACCAUAAAGAGGUUAUCCUCUCACCGAGAUCGGAAGAGCACACGU
B2: target 1 insG 3' of 4,insG 3' of 1 (mixed)
RNA 1: CACCCGUGCAAAAAUGCAGGGGUCUAAAACUGAGCGGAUAACCUCUCUAUGG
RNA 2: GGGAAUGGAUCCACAUCUACGAAUUCGUACCAUAGAGAGGUUAUCCGCGUCAGCCGAGAUCGGAAGAGCACACGU
B3: target 2 MT 5'PFS CUG 3'PFS CGC (mixed)
RNA 1: CACCCGUGCAAAAUUGCAGGGGUCUAAAACCUUCUCCAAAUUGUUUCAUCCU
RNA 2: GGGAAUGGAUCCACAUCUACGAAUUCCUGAGGAUGAAACAAUUUGGAGAAGCGCAGAUCGGAAGAGCACACGU
B4: target 2 MT 5'PFS GGC 3'PFS UUA (mixed)
RNA 1: CACCCGUGCAAAAUUGCAGGGGUCUAAAACCUUCUCCAAAUUGUUUCAUCCU
RNA 2: GGGAAUGGAUCCACAUCUACGAAUUCGGCAGGAUGAAACAAUUUGGAGAAGUUAAGAUCGGAAGAGCACACGU
B5: target 2 MT 5'PFS CUG 3'PFS AUU (mixed)
RNA 1: CACCCGUGCAAAAUUGCAGGGGUCUAAAACCUUCUCCAAAUUGUUUCAUCCU
RNA 2: GGGAAUGGAUCCACAUCUACGAAUUCCUGAGGAUGAAACAAUUUGGAGAAGAUUAGAUCGGAAGAGCACACGU
B6: target 2 MT 5'PFS UAA 3'PFS UGC (mixed)
RNA 1: CACCCGUGCAAAAUUGCAGGGGUCUAAAACCUUCUCCAAAUUGUUUCAUCCU
RNA 2: GGGAAUGGAUCCACAUCUACGAAUUCUAAAGGAUGAAACAAUUUGGAGAAGUGCAGAUCGGAAGAGCACACGU
B7: target 2 MT 5'PFS GGU 3'PFS CGU (mixed)
RNA 1: CACCCGUGCAAAAUUGCAGGGGUCUAAAACCUUCUCCAAAUUGUUUCAUCCU
RNA 2: GGGAAUGGAUCCACAUCUACGAAUUCGGUAGGAUGAAACAAUUUGGAGAAGCGUAGAUCGGAAGAGCACACGU
B8: target 2 MT 5'PFS AAC 3'PFS UAU (mixed)
RNA 1: CACCCGUGCAAAAUUGCAGGGGUCUAAAACCUUCUCCAAAUUGUUUCAUCCU
RNA 2: GGGAAUGGAUCCACAUCUACGAAUUCAACAGGAUGAAACAAUUUGGAGAAGUAUAGAUCGGAAGAGCACACGU
B9: target 2 MT 5'PFS CUA 3'PFS UAG (mixed)
RNA 1: CACCCGUGCAAAAUUGCAGGGGUCUAAAACCUUCUCCAAAUUGUUUCAUCCU
RNA 2: GGGAAUGGAUCCACAUCUACGAAUUCCUAAGGAUGAAACAAUUUGGAGAAGUAGAGAUCGGAAGAGCACACGU
B10: target 2 MT 5'PFS UAA 3'PFS UGU (mixed)
RNA 1: CACCCGUGCAAAAUUGCAGGGGUCUAAAACCUUCUCCAAAUUGUUUCAUCCU
RNA 2: GGGAAUGGAUCCACAUCUACGAAUUCUAAAGGAUGAAACAAUUUGGAGAAGUGUAGAUCGGAAGAGCACACGU
B11: target 2 MT 5'PFS GGC 3'PFS UUC (mixed)
RNA 1: CACCCGUGCAAAAUUGCAGGGGUCUAAAACCUUCUCCAAAUUGUUUCAUCCU
RNA 2: GGGAAUGGAUCCACAUCUACGAAUUCGGCAGGAUGAAACAAUUUGGAGAAGUUCAGAUCGGAAGAGCACACGU
B12: target 2 MT 5'PFS GGA 3'PFS UCU (mixed)
RNA 1: CACCCGUGCAAAAUUGCAGGGGUCUAAAACCUUCUCCAAAUUGUUUCAUCCU
RNA 2: GGGAAUGGAUCCACAUCUACGAAUUCGGAAGGAUGAAACAAUUUGGAGAAGUCUAGAUCGGAAGAGCACACGU
B13: target 2 MT 5'PFS AAC 3'PFS ACG (mixed)
RNA 1: CACCCGUGCAAAAUUGCAGGGGUCUAAAACCUUCUCCAAAUUGUUUCAUCCU
RNA 2: GGGAAUGGAUCCACAUCUACGAAUUCAACAGGAUGAAACAAUUUGGAGAAGACGAGAUCGGAAGAGCACACGU
B14: target 2 MT 5'PFS AAC 3'PFS ACC (mixed)
RNA 1: CACCCGUGCAAAAUUGCAGGGGUCUAAAACCUUCUCCAAAUUGUUUCAUCCU
RNA 2: GGGAAUGGAUCCACAUCUACGAAUUCAACAGGAUGAAACAAUUUGGAGAAGACCAGAUCGGAAGAGCACACGU
B15: target 2 MT 5'PFS GGU 3'PFS CGC (mixed)
RNA 1: CACCCGUGCAAAAUUGCAGGGGUCUAAAACCUUCUCCAAAUUGUUUCAUCCU
RNA 2: GGGAAUGGAUCCACAUCUACGAAUUCGGUAGGAUGAAACAAUUUGGAGAAGCGCAGAUCGGAAGAGCACACGU
B16: target 2 MT 5'PFS GGU 3'PFS CGG (mixed)
RNA 1: CACCCGUGCAAAAUUGCAGGGGUCUAAAACCUUCUCCAAAUUGUUUCAUCCU
RNA 2: GGGAAUGGAUCCACAUCUACGAAUUCGGUAGGAUGAAACAAUUUGGAGAAGCGGAGAUCGGAAGAGCACACGU
B17: target 2 MT 5'PFS GGA 3'PFS CCG (mixed)
RNA 1: CACCCGUGCAAAAUUGCAGGGGUCUAAAACCUUCUCCAAAUUGUUUCAUCCU
RNA 2: GGGAAUGGAUCCACAUCUACGAAUUCGGAAGGAUGAAACAAUUUGGAGAAGCCGAGAUCGGAAGAGCACACGU
B18: target 2 MT 5'PFS GAC 3'PFS ACU (mixed)
RNA 1: CACCCGUGCAAAAUUGCAGGGGUCUAAAACCUUCUCCAAAUUGUUUCAUCCU
RNA 2: GGGAAUGGAUCCACAUCUACGAAUUCGACAGGAUGAAACAAUUUGGAGAAGACUAGAUCGGAAGAGCACACGU
B19: target 2 MT 5'PFS UAG 3'PFS CGC (mixed)
RNA 1: CACCCGUGCAAAAUUGCAGGGGUCUAAAACCUUCUCCAAAUUGUUUCAUCCU
RNA 2: GGGAAUGGAUCCACAUCUACGAAUUCUAGAGGAUGAAACAAUUUGGAGAAGCGCAGAUCGGAAGAGCACACGU
B20: target 2 MT 5'PFS ACA 3'PFS AAU (mixed)
RNA 1: CACCCGUGCAAAAUUGCAGGGGUCUAAAACCUUCUCCAAAUUGUUUCAUCCU
RNA 2: GGGAAUGGAUCCACAUCUACGAAUUCACAAGGAUGAAACAAUUUGGAGAAGAAUAGAUCGGAAGAGCACACGU
B21: target 2 MT 5'PFS GUC 3'PFS UGA (mixed)
RNA 1: CACCCGUGCAAAAUUGCAGGGGUCUAAAACCUUCUCCAAAUUGUUUCAUCCU
RNA 2: GGGAAUGGAUCCACAUCUACGAAUUCGUCAGGAUGAAACAAUUUGGAGAAGUGAAGAUCGGAAGAGCACACGU
B22: target 2 MT 5'PFS GGA 3'PFS CCA (mixed)
RNA 1: CACCCGUGCAAAAUUGCAGGGGUCUAAAACCUUCUCCAAAUUGUUUCAUCCU
RNA 2: GGGAAUGGAUCCACAUCUACGAAUUCGGAAGGAUGAAACAAUUUGGAGAAGCCAAGAUCGGAAGAGCACACGU
B23: target 2 MT 5'PFS GGU 3'PFS CGA (mixed)
RNA 1: CACCCGUGCAAAAUUGCAGGGGUCUAAAACCUUCUCCAAAUUGUUUCAUCCU
RNA 2: GGGAAUGGAUCCACAUCUACGAAUUCGGUAGGAUGAAACAAUUUGGAGAAGCGAAGAUCGGAAGAGCACACGU
B24: target 2 MT 5'PFS CAA 3'PFS UCC (mixed)
RNA 1: CACCCGUGCAAAAUUGCAGGGGUCUAAAACCUUCUCCAAAUUGUUUCAUCCU
RNA 2: GGGAAUGGAUCCACAUCUACGAAUUCCAAAGGAUGAAACAAUUUGGAGAAGUCCAGAUCGGAAGAGCACACGU

The binders below were run against T1, EsCas13d, nuclease-dead (assay: crRNA (strand 1, pre-loaded); Mg2+; 40 mM Tris-HCl pH 7.5, 150 mM NaCl, 6 mM MgCl2, 1 mM DTT, 0.1% Tween-20, 0.2 mg/ml BSA; 25 C; 10 min per concentration, then washed). Conditions: tags: His6-TwinStrep-SUMO cleaved; N-terminal SNAP kept (SNAP-Surface 488); label: 3' end held by stalled T7 RNA polymerase.
B1 gave a Kd of 91 ± 15 nM.
For B2, the Kd was 6 ± 0.4 nM.
Binder B3 has a Kd of 4 ± 0.4 nM.
Work on B4 yielded a Kd of 15.2 ± 1.8 nM.
B5 was tested, and the Kd was 2.57 ± 0.22 nM.
For B6, the Kd was 5.6 ± 1.2 nM.
For B7, the Kd was 22.3 ± 2.6 nM.
For B8, the Kd was 5.4 ± 0.8 nM.
Work on B9 yielded a Kd of 1.9 ± 0.4 nM.
Work on B10 yielded a Kd of 9.5 ± 1.5 nM.
B11 showed a Kd of 18.8 ± 2.3 nM.
B12 was tested, and the Kd was 22 ± 4 nM.
B13 was tested, and the Kd was 6.1 ± 1.6 nM.
Binder B14 has a Kd of 7 ± 2.4 nM.
Binder B15 has a Kd of 15.1 ± 1.4 nM.
Binder B16 has a Kd of 15.6 ± 1.4 nM.
With B17 the Kd was 12.3 ± 1.2 nM.
B18 gave a Kd of 30 ± 10 nM.
For B19, the Kd was 2.36 ± 0.26 nM.
B20 gave a Kd of 5.7 ± 1.3 nM.
B21 gave a Kd of 17.4 ± 2.6 nM.
For B22, the Kd was 27 ± 5 nM.
In the case of B23, the Kd is reported as 15.4 ± 2.1 nM.
Binder B24 has a Kd of 7.3 ± 0.6 nM.
